Data: patent publication US20160160263

T1: TIAH/LH, MMP2 selective substrate
T1 chain: TIAHLH

T2: YGRAAA (SEQ ID NO: 17), uPA selective substrate
T2 chain: YGRAAA

B1: MMP-2 (protein)
chain: YNFFPRKPKWDKNQITYRIIGYTPDLDPETVDDAFARAFQVWSDVTPLRFSRIHDGEADIMINFGRWEHGDGYPFDGKDGLLAHAFAPGTGVGGDSHFDDDELWTLGEGQVVRVKYGNADGEYCKFPFLFNGKEYNSCTDTGRSDGFLWCSTTYNFEKDGKYGFCPHEALFTMGGNAEGQPCKFPFRFQGTSYDSCTTEGRTDGYRWCGTTEDYDRDKKYGFCPETAMSTVGGNSEGAPCVFPFTFLGNKYESCTSAGRSDGKMWCATTANYDDDRKWGFCPDQGYSLFLVAAHEFGHAMGLEHSQDPGALMAPIYTYTKNFRLSQDDIKGIQELYGASPDIDLGTGPTPTLGPVTPEICKQDIVFDGIAQIRGEIFFFKDRFIWRTVTPRDKPMGPLLVATFWPELPEKIDAVYEAPQEEKAVFFAGNEYWIYSASTLERGYPKPLTSLGLPPDVQRVDAAFNWSKNKKTYIFAGDKFWRYNEVKKKMDPGFPKLIADAWNAIPDNLDAVVDLQGGGHSYFFKGAYYLKLENQSLKSVKFGSIKSDWLGC
B2: tissue plasminogen activator (tPA) (protein)
chain: SYQVICRDEKTQMIYQQHQSWLRPVLRSNRVEYCWCNSGRAQCHSVPVKSCSEPRCFNGGTCQQALYFSDFVCQCPEGFAGKCCEIDTRATCYEDQGISYRGTWSTAESGAECTNWNSSALAQKPYSGRRPDAIRLGLGNHNYCRNPDRDSKPWCYVFKAGKYSSEFCSTPACSEGNSDCYFGNGSAYRGTHSLTESGASCLPWNSMILIGKVYTAQNPSAQALGLGKHNYCRNPDGDAKPWCHVLKNRRLTWEYCDVPSCSTCGLRQYSQPQFRIKGGLFADIASHPWQAAIFAKHRRSPGERFLCGGILISSCWILSAAHCFQERFPPHHLTVILGRTYRVVPGEEEQKFEVEKYIVHKEFDDDTYDNDIALLQLKSDSSRCAQESSVVRTVCLPPADLQLPDWTECELSGYGKHEALSPFYSERLKEAHVRLYPSSRCTSQHLLNRTVTDNMLCAGDTRSGGPQANLHDACQGDSGGPLVCLNDGRMTLVGIISWGLGCGQKDVPGVYTKVTNYLDWIRDNMRP

What was measured:
[1] = target: T1, TIAH/LH, MMP2 selective substrate
[2] = target: T2, YGRAAA (SEQ ID NO: 17), uPA selective …

Row | Protein | cleavage of ACPP substrate by protease [1] | cleavage of ACPP substrate by protease [2]
1 | B1 | selectively cleaved by MMP-2 versus 9 and 14 | 
2 | B2 |  | to a lesser extent by tPA
